What all share (test): EMSA
For series [1], the target named is T1, Tcf3 B-HLH domain (E47);Ascl1 B-HLH domain (;, UniProt P15806-2;Q02067 ;, |).
T1 sequence 1: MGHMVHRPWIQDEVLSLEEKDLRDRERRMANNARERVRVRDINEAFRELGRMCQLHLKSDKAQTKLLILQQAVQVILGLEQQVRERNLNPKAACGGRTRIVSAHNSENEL
T1 sequence 2: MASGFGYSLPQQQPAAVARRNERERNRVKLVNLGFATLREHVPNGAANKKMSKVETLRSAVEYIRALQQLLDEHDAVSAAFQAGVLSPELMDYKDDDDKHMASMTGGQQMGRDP

A further series concerns the target T2, Tcf3 B-HLH domain (E47) (UniProt P15806-2).
T2 sequence: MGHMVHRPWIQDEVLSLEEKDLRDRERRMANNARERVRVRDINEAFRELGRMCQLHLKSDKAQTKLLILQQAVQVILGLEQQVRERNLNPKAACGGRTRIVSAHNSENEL

Series [2] addresses Tcf12 B-HLH domain;Ascl1 B-HLH domain (;, UniProt Q61286;Q02067 ;, |).
The next series has as its target T3, Ascl1 B-HLH domain (UniProt Q02067).
T3 sequence: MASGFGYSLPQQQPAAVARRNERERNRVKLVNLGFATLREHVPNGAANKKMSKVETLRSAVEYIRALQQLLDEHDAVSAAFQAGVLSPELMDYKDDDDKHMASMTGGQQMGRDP

The next series deals with Tcf4 B-HLH domain (UniProt Q60722).
Series [3] has as its target Tcf4 B-HLH domain;Ascl1 B-HLH domain (;, UniProt Q60722;Q02067 ;, |).
For the next series, the target named is Tcf12 B-HLH domain (UniProt Q61286).
For series [4], the target named is T1, Tcf3 B-HLH domain (E47);Ascl1 B-HLH …. The source holds these as a separate data set.

Where two headings read alike, the source gives them in different places.

B1: weak E-box CGCAA|ATG 28-mer C(a)|C(b) (dsDNA)
DNA 1: CTGACCCATACGCAAATGTCTGACTGAC
DNA 2: GTCAGTCAGACATTTGCGTATGGGTCAG
The molecule B1 came in with a binding signal in series [1] of about 100 fold weaker than N1.

B2: CGCAG|GTG 28-mer 5caC(a)|5caC(b) (dsDNA)
DNA 1: CTGACCGATACGCAGGTGCCTGACTGAC
DNA 2: GTCAGTCAGGCACCTGCGTATCGGTCAG
modifications: 5caC at C11 of strand 1 and C17 of strand 2
Regarding B2, the binding signal was about 2 fold binding vs N1 with Tcf3 B-HLH domain (E47); about 10 fold binding vs N1 in series [2]; about 6 fold binding vs N1 in the series with Ascl1 B-HLH domain; about 3 fold binding vs N1 with Tcf4 B-HLH domain; about 6 fold binding vs N1 in series [3]; about 4 fold binding vs N1 with Tcf12 B-HLH domain. This molecule also yielded a binding signal in series [4] of about 10 fold binding vs N1.

B3: weak E-box CGCAA|ATG 28-mer 5caC(a)|5caC(b) (dsDNA)
DNA 1: CTGACCCATACGCAAATGTCTGACTGAC
DNA 2: GTCAGTCAGACATTTGCGTATGGGTCAG
modifications: 5caC at C11 of strand 1 and C17 of strand 2
B3: the binding signal in series [1] was about 10 fold binding vs N8.
